Test: Diffusion coefficient (Dcoeff) of FtsA from FRAP
Settings: for Diffusion Coefficient, mean: Fig. 3j; for Dcoeff: Fig. S3i/S3j, summary value
Source text: We could also use the data from these bleaching experiments to quantify the membrane-binding kinetics and diffusion of membrane-bound proteins by analysing the change of the fluorescence profile during recovery.
Equimolar concentrations of Cy3- and Cy5-labelled FtsA, supplemented with 20% unlabelled FtsA were used to study FRET and FRAP. Five pre-bleach frames were acquired, followed by acceptor photobleaching of a rectangular ROI with 40% 641 nm laser power and a dwell size of 1 µs/pixel, 75% overlapping lines. The recovery of the signal or the increase in donor intensity were measured with either two frames or one frame per second.
Bleaching the acceptor dye leads to an increase in the donor intensity, which can be used to quantify the Foerster Resonance energy transfer (FRET)[48]. FRET efficiency was quantified with E%=Ipost/Ipost+Ipre⋅100 , where Ipost is the intensity of the […] and Ipre is the […]. […] To extract the contribution of both processes, we adjusted a routine recently published by Gerganova et al.[33]. In short, the code provides the contribution of both modes of recovery by analysing the shape of the fluorescence recovery profile. […] Contribution of diffusion leads to a change of the slope of the outer borders of the bleached region (S4h right). Thus, by measuring the change of the slope of the border recovery, diffusion and simple on/off binding can be distinguished. We developed “FRAPdiff”, a graphical user interface, which uses the original fit routine by David Rutkowski. It can be used directly on.tiff movies with annotated bleach regions as ImageJ ROIs. In addition, we added optional bleach correction, user selectable projection axis (x or y), and optional mirroring of the recovery profiles, if bleaching was not symmetric. The original fit routine for estimating the recovery and diffusion dynamics can be found at https://github.com/davidmrutkowski/1DReflectingDiffusion. FRAPdiff is available at 10.5281/zenodo.6400639[49] under the GPLv3 open-source license.

B1: FtsA R286W (protein)
chain: MIKATDRKLVVGLEIGTAKVAALVGEVLPDGMVNIIGVGSCPSRGMDKGGVNDLESVVKCVQRAIDQAELMADCQISSVYLALSGKHISCQNEIGMVPISEEEVTQEDVENVVHTAKSVRVRDEHRVLHVIPQEYAIDYQEGIKNPVGLSGVRMQAKVHLITCHNDMAKNIVKAVERCGLKVDQLIFAGLASSYSVLTEDERELGVCVVDIGGGTMDIAVYTGGALRHTKVIPYAGNVVTSDIAYAFGTPPSDAEAIKVRHGCALGSIVGKDESVEVPSVGGRPPWSLQRQTLAEVIEPRYTELLNLVNEEILQLQEKLRQQGVKHHLAAGIVLTGGAAQIEGLAACAQRVFHTQVRIGAPLNITGLTDYAQEPYYSTAVGLLHYGKESHLNGEAEVEKRVTASVGSWIKRLNSWLRKEF
modifications: Cy3 or Cy5 at the N-terminus in the labelled form (labelled CLEPTGG peptide conjugated to the 5xGly tag by sortagging); unlabelled protein also used; left off: TwinStrep-SUMO, N-terminal, cleaved | 5x
- Diffusion Coefficient, mean (0.1 µM FtsA + N): 7.25E-02 µm2/s
- Diffusion Coefficient, mean (0.1 µM FtsA + Z&N): 2.31E-02 µm2/s
- Diffusion Coefficient, mean (0.1 µM FtsA + Z): 5.72E-03 µm2/s
- Diffusion Coefficient (0.1µM FtsA alone, Mean, n=18 (WT), 6 (R286W)): 0.0520
- Diffusion Coefficient, mean (0.1 µM FtsA alone): 5.20E-02 µm2/s
- Diffusion Coefficient (0.1µM FtsA alone, replicate Exp.1): 8.43E-02
- Diffusion Coefficient (0.1µM FtsA alone, replicate Exp.2): 1.09E-02
- Diffusion Coefficient (0.1µM FtsA alone, replicate Exp.3): 6.73E-03
- Diffusion Coefficient (0.1µM FtsA alone, replicate Exp.4): 8.58E-02
- Diffusion Coefficient (0.1µM FtsA alone, replicate Exp.5): 8.30E-02
- Diffusion Coefficient (0.1µM FtsA alone, replicate Exp.6): 4.11E-02
- Diffusion Coefficient (0.1µM, + FtsN&Z, Mean, n=5 (WT), 3 (R286W)): 0.0231
- Diffusion Coefficient (0.1µM, + FtsN&Z, replicate Exp.1): 1.54E-02
- Diffusion Coefficient (0.1µM, + FtsN&Z, replicate Exp.2): 3.28E-02
- Diffusion Coefficient (0.1µM, + FtsN&Z, replicate Exp.3): 2.10E-02
- Diffusion Coefficient (0.1µM, + FtsN, Mean, n=5 (WT), 3 (R286W)): 0.0725
- Diffusion Coefficient (0.1µM, + FtsN, replicate Exp.1): 2.08E-01
- Diffusion Coefficient (0.1µM, + FtsN, replicate Exp.2): 5.52E-03
- Diffusion Coefficient (0.1µM, + FtsN, replicate Exp.3): 4.11E-03
- Diffusion Coefficient (0.1µM, + FtsZ, Mean, n=8 (WT), 4 (R286W)): 0.0057
- Diffusion Coefficient (0.1µM, + FtsZ, replicate Exp.1): 3.86E-04
- Diffusion Coefficient (0.1µM, + FtsZ, replicate Exp.2): 2.70E-04
- Diffusion Coefficient (0.1µM, + FtsZ, replicate Exp.3): 1.57E-02
- Diffusion Coefficient (0.1µM, + FtsZ, replicate Exp.4): 6.48E-03
- Diffusion Coefficient, mean (0.2 µM FtsA + N): 7.49E-02 µm2/s
- Diffusion Coefficient, mean (0.2 µM FtsA + Z&N): 3.50E-02 µm2/s
- Diffusion Coefficient, mean (0.2 µM FtsA + Z): 1.81E-02 µm2/s
- Diffusion Coefficient (0.2µM FtsA alone, Mean, n=24 (WT), 6 (R286W)): 0.1536
- Diffusion Coefficient, mean (0.2 µM FtsA alone): 1.54E-01 µm2/s
- Diffusion Coefficient (0.2µM FtsA alone, replicate Exp.1): 5.97E-01
- Diffusion Coefficient (0.2µM FtsA alone, replicate Exp.2): 7.31E-02
- Diffusion Coefficient (0.2µM FtsA alone, replicate Exp.3): 7.49E-02
- Diffusion Coefficient (0.2µM FtsA alone, replicate Exp.4): 3.26E-02
- Diffusion Coefficient (0.2µM FtsA alone, replicate Exp.5): 1.37E-01
- Diffusion Coefficient (0.2µM FtsA alone, replicate Exp.6): 6.07E-03
- Diffusion Coefficient (0.2µM, + FtsN&Z, Mean, n=8 (WT), 6 (R286W)): 0.0350
- Diffusion Coefficient (0.2µM, + FtsN&Z, replicate Exp.1): 5.92E-02
- Diffusion Coefficient (0.2µM, + FtsN&Z, replicate Exp.2): 5.62E-02
- Diffusion Coefficient (0.2µM, + FtsN&Z, replicate Exp.3): 3.73E-02
- Diffusion Coefficient (0.2µM, + FtsN&Z, replicate Exp.4): 2.25E-02
- Diffusion Coefficient (0.2µM, + FtsN&Z, replicate Exp.5): 3.21E-02
- Diffusion Coefficient (0.2µM, + FtsN&Z, replicate Exp.6): 2.82E-03
- Diffusion Coefficient (0.2µM, + FtsN, Mean, n=7 (WT), 4 (R286W)): 0.0749
- Diffusion Coefficient (0.2µM, + FtsN, replicate Exp.1): 3.41E-02
- Diffusion Coefficient (0.2µM, + FtsN, replicate Exp.2): 6.37E-02
- Diffusion Coefficient (0.2µM, + FtsN, replicate Exp.3): 1.01E-01
- Diffusion Coefficient (0.2µM, + FtsN, replicate Exp.4): 1.01E-01
- Diffusion Coefficient (0.2µM, + FtsZ, Mean, n=7 (WT), 6 (R286W)): 0.0181
- Diffusion Coefficient (0.2µM, + FtsZ, replicate Exp.1): 2.61E-02
- Diffusion Coefficient (0.2µM, + FtsZ, replicate Exp.2): 3.49E-02
- Diffusion Coefficient (0.2µM, + FtsZ, replicate Exp.3): 2.40E-02
- Diffusion Coefficient (0.2µM, + FtsZ, replicate Exp.4): 1.48E-02
- Diffusion Coefficient (0.2µM, + FtsZ, replicate Exp.5): 2.86E-04
- Diffusion Coefficient (0.2µM, + FtsZ, replicate Exp.6): 8.41E-03
- Diffusion Coefficient, mean (0.4 µM FtsA + N): 4.57E-02 µm2/s
- Diffusion Coefficient, mean (0.4 µM FtsA + Z&N): 7.88E-03 µm2/s
- Diffusion Coefficient, mean (0.4 µM FtsA + Z): 3.05E-02 µm2/s
- Diffusion Coefficient (0.4µM FtsA alone, Mean, n=18 (WT), 9 (R286W)): 0.1352
- Diffusion Coefficient, mean (0.4 µM FtsA alone): 1.35E-01 µm2/s
- Diffusion Coefficient (0.4µM FtsA alone, replicate Exp.1): 1.81E-01
- Diffusion Coefficient (0.4µM FtsA alone, replicate Exp.2): 2.05E-02
- Diffusion Coefficient (0.4µM FtsA alone, replicate Exp.3): 2.71E-02
- Diffusion Coefficient (0.4µM FtsA alone, replicate Exp.4): 1.05E-01
- Diffusion Coefficient (0.4µM FtsA alone, replicate Exp.5): 1.05E-01
- Diffusion Coefficient (0.4µM FtsA alone, replicate Exp.6): 1.63E-01
- Diffusion Coefficient (0.4µM FtsA alone, replicate Exp.7): 2.73E-01
- Diffusion Coefficient (0.4µM FtsA alone, replicate Exp.8): 2.14E-01
- Diffusion Coefficient (0.4µM FtsA alone, replicate Exp.9): 1.27E-01
- Diffusion Coefficient (0.4 µM FtsA, FRAP, p-value […] 10^−6): 0.14 ± 0.08 µm^2/s
- Diffusion Coefficient (0.4µM, + FtsN&Z, Mean, n=6 (WT), 9 (R286W)): 0.0079
- Diffusion Coefficient (0.4µM, + FtsN&Z, replicate Exp.1): 3.88E-02
- Diffusion Coefficient (0.4µM, + FtsN&Z, replicate Exp.2): 8.74E-03
- Diffusion Coefficient (0.4µM, + FtsN&Z, replicate Exp.3): 4.31E-03
- Diffusion Coefficient (0.4µM, + FtsN&Z, replicate Exp.4): 3.80E-04
- Diffusion Coefficient (0.4µM, + FtsN&Z, replicate Exp.5): 1.83E-02
- Diffusion Coefficient (0.4µM, + FtsN&Z, replicate Exp.6): 1.51E-04
- Diffusion Coefficient (0.4µM, + FtsN&Z, replicate Exp.7): 1.71E-04
- Diffusion Coefficient (0.4µM, + FtsN, Mean, n=5 (WT), 6 (R286W)): 0.0457
- Diffusion Coefficient (0.4µM, + FtsN, replicate Exp.1): 2.78E-02
- Diffusion Coefficient (0.4µM, + FtsN, replicate Exp.2): 2.32E-02
- Diffusion Coefficient (0.4µM, + FtsN, replicate Exp.3): 3.10E-02
- Diffusion Coefficient (0.4µM, + FtsN, replicate Exp.4): 1.25E-01
- Diffusion Coefficient (0.4µM, + FtsN, replicate Exp.5): 3.86E-02
- Diffusion Coefficient (0.4µM, + FtsN, replicate Exp.6): 2.82E-02
- Diffusion Coefficient (0.4µM, + FtsZ, Mean, n=5 (WT), 8 (R286W)): 0.0305
- Diffusion Coefficient (0.4µM, + FtsZ, replicate Exp.1): 9.70E-03
- Diffusion Coefficient (0.4µM, + FtsZ, replicate Exp.2): 1.10E-04
- Diffusion Coefficient (0.4µM, + FtsZ, replicate Exp.3): 2.57E-02
- Diffusion Coefficient (0.4µM, + FtsZ, replicate Exp.4): 8.47E-04
- Diffusion Coefficient (0.4µM, + FtsZ, replicate Exp.5): 3.19E-02
- Diffusion Coefficient (0.4µM, + FtsZ, replicate Exp.6): 1.28E-01
- Diffusion Coefficient (0.4µM, + FtsZ, replicate Exp.7): 3.30E-03
- Diffusion Coefficient (0.4µM, + FtsZ, replicate Exp.8): 4.40E-02
- Diffusion Coefficient, mean (0.8 µM FtsA + N): 4.39E-02 µm2/s
- Diffusion Coefficient, mean (0.8 µM FtsA + Z&N): 7.03E-03 µm2/s
- Diffusion Coefficient, mean (0.8 µM FtsA + Z): 1.59E-02 µm2/s
- Diffusion Coefficient (0.8µM FtsA alone, Mean, n=19 (WT), 8 (R286W)): 0.1136
- Diffusion Coefficient, mean (0.8 µM FtsA alone): 1.14E-01 µm2/s
- Diffusion Coefficient (0.8µM FtsA alone, replicate Exp.1): 2.82E-01
- Diffusion Coefficient (0.8µM FtsA alone, replicate Exp.2): 8.82E-02
- Diffusion Coefficient (0.8µM FtsA alone, replicate Exp.3): 6.72E-02
- Diffusion Coefficient (0.8µM FtsA alone, replicate Exp.4): 7.30E-02
- Diffusion Coefficient (0.8µM FtsA alone, replicate Exp.5): 1.01E-01
- Diffusion Coefficient (0.8µM FtsA alone, replicate Exp.6): 8.47E-02
- Diffusion Coefficient (0.8µM FtsA alone, replicate Exp.7): 1.13E-01
- Diffusion Coefficient (0.8µM FtsA alone, replicate Exp.8): 9.93E-02
- Diffusion Coefficient (0.8µM, + FtsN&Z, Mean, n=5 (WT), 4 (R286W)): 0.0070
- Diffusion Coefficient (0.8µM, + FtsN&Z, replicate Exp.1): 2.90E-03
- Diffusion Coefficient (0.8µM, + FtsN&Z, replicate Exp.2): 7.64E-03
- Diffusion Coefficient (0.8µM, + FtsN&Z, replicate Exp.3): 1.38E-02
- Diffusion Coefficient (0.8µM, + FtsN&Z, replicate Exp.4): 3.70E-03
- Diffusion Coefficient (0.8µM, + FtsN, Mean, n=4 (WT), 3 (R286W)): 0.0439
- Diffusion Coefficient (0.8µM, + FtsN, replicate Exp.1): 1.96E-02
- Diffusion Coefficient (0.8µM, + FtsN, replicate Exp.2): 4.05E-02
- Diffusion Coefficient (0.8µM, + FtsN, replicate Exp.3): 7.15E-02
- Diffusion Coefficient (0.8µM, + FtsZ, Mean, n=3 (WT), 8 (R286W)): 0.0159
- Diffusion Coefficient (0.8µM, + FtsZ, replicate Exp.1): 3.69E-02
- Diffusion Coefficient (0.8µM, + FtsZ, replicate Exp.2): 8.95E-03
- Diffusion Coefficient (0.8µM, + FtsZ, replicate Exp.3): 1.47E-02
- Diffusion Coefficient (0.8µM, + FtsZ, replicate Exp.4): 3.84E-03
- Diffusion Coefficient (0.8µM, + FtsZ, replicate Exp.5): 3.32E-03
- Diffusion Coefficient (0.8µM, + FtsZ, replicate Exp.6): 1.93E-02
- Diffusion Coefficient (0.8µM, + FtsZ, replicate Exp.7): 8.19E-14
- Diffusion Coefficient (0.8µM, + FtsZ, replicate Exp.8): 4.01E-02
- Dcoeff (0.10 µM FtsA): 5.20E-02 µm2/s
- Dcoeff (0.20 µM FtsA): 6.48E-02 µm2/s
- Dcoeff (0.40 µM FtsA): 1.35E-01 µm2/s
- Dcoeff (0.80 µM FtsA): 1.14E-01 µm2/s

Reference: publication PMC9098913, “In vitro reconstitution of Escherichia coli divisome activation” (Nature Communications, 2022)
